Results on 15 molecules are retold here after publication PMC5127646, “Structural basis for the recognition of spliceosomal SmN/B/B’ proteins by the RBM5 OCRE domain in splicing regulation” (eLife, 2016).

B1: RBM5 OCRE domain (residues 451-511), wild type (domain or fragment, human)
chain: GAMGTKYAVPDTSTYQYDESSGYYYDPTTGLYYDPNSQYYYNSLTQQYLYWDGEKETYVPAAES
notes: tripeptide left by the TEV cleavage; 15N- or 13C,15N-labelled in the NMR experiments; also called RBM5_OCRE WT; source: E. coli BL21, purified (Ni-NTA, TEV cleavage, gel filtration); not shown: His6, N-terminal, cleaved
B2: RBM5 OCRE domain (451-511) Y495A (domain or fragment, human)
chain: B1 chain with Y48A
notes: tripeptide left by the TEV cleavage; RBM5, human, OCRE domain, residues 451-511; source: E. coli BL21, purified (Ni-NTA, TEV cleavage, gel filtration); not shown: His6, N-terminal, cleaved
B3: RBM5 OCRE domain (451-511) Y488A (domain or fragment, human)
chain: B1 chain with Y41A
notes: as for B2
B4: RBM5 OCRE domain (451-511) Y495F (domain or fragment, human)
chain: B1 chain with Y48F
notes: as for B2
B5: RBM5 OCRE domain (451-511) Y479A (domain or fragment, human)
chain: B1 chain with Y32A
notes: as for B2
B6: RBM5 OCRE domain (451-511) Y454A/D458K (domain or fragment, human)
chain: B1 chain with Y7A, D11K
notes: as for B2
B7: RBM5 OCRE domain (451-511) Y486A (domain or fragment, human)
chain: B1 chain with Y39A
notes: as for B2
B8: RBM5 OCRE domain (451-511) Y495T (domain or fragment, human)
chain: B1 chain with Y48T
notes: as for B2
B9: RBM5 OCRE domain (451-511) Y495W (domain or fragment, human)
chain: B1 chain with Y48W
notes: as for B2
B10: RBM5 OCRE domain (451-511) E501K (domain or fragment, human)
chain: B1 chain with E54K
notes: as for B2
B11: SmN peptide, residues 219-229 (GMRPPPPGIRG) (peptide)
peptide: GMRPPPPGIRG
notes: source: synthetic peptide (Peptide Specialty Laboratory, Heidelberg)
B12: SmN residues 167-196 (domain or fragment)
chain: not shown
notes: source: E. coli BL21, purified (Ni-NTA, TEV cleavage, gel filtration); not shown: His6, N-terminal, cleaved; GST, N-terminal, cleaved
B13: SmN 167-240 4P→4A (domain or fragment)
chain: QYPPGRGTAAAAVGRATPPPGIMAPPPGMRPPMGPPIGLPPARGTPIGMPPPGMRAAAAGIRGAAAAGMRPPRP
B14: SmN 167-240 4P/3P→4A/3A (domain or fragment)
chain: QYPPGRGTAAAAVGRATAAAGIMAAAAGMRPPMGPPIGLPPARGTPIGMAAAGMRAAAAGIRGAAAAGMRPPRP
B15: SmN 167-240 4P/3P→4G/3G (domain or fragment)
chain: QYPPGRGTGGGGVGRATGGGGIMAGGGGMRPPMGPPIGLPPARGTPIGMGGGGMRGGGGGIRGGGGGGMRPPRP

Substitutions are numbered along the chain they refer to. In names and notes the source's numbering stands.

Settings in all cases: both partners purified
For test [1], the target named is T1, SmB C-terminal region, residues 167-231, wild type (human, UniProt P14678-2 167-231).
T1 construct: source: E. coli BL21, purified (Ni-NTA, TEV cleavage, gel filtration); not shown: His6, N-terminal, cleaved; GST, N-terminal, cleaved
Put plainly: ITC; Sm tail constructs with wild type OCRE; SmN constructs (1 mM) titrated into OCRE (100 μM); ITC200, 24°C, 20 mM sodium phosphate pH 6.5, 50 mM NaCl; duplicates.

Test [2] addresses T2, SmN C-terminal tail, residues 167-240 (complete proline-rich region), wild type (human, UniProt P63162 167-240).
T2 construct: The ITC methods print 168-240 for this construct; also called SmN_167-240 WT; source: E. coli BL21, purified (Ni-NTA, TEV cleavage, gel filtration); not shown: His6, N-terminal, cleaved; GST, N-terminal, cleaved
The test is described as above.

The target of test [3] is T2, SmN C-terminal tail, residues 167-240 …. Description: ITC; purified OCRE mutants (2 mM) titrated to wild type SmN (29.5 μM); ITC200, 24°C, 20 mM sodium phosphate pH 6.5, 50 mM NaCl; duplicates. Background: Isothermal titration calorimetry measures the heat released or taken up as one component is titrated into another.
Test [4] concerns the target B1. Description: NMR structure; solution structure; 2 mM ^13C,^15N-labeled OCRE with 14 mM unlabeled SmN 219-229 peptide, 298 K; 109 intermolecular NOE restraints.
Test [5] has as its target B1. Put plainly: ITC; Sm tail constructs with wild type OCRE; SmN constructs (1 mM) titrated into OCRE (100 μM); ITC200, 24°C, 20 mM sodium phosphate pH 6.5, 50 mM NaCl; duplicates.

As usually defined, the Kd is the equilibrium constant for the complex coming apart. Lower therefore signals higher affinity. Take B1: the Kd in test [1] came out at 21 µM; in test [2] it was 41 µM.
In the case of B2, the affinity in test [3], expressed as Kd, was 172 µM.
B3 came in with a dissociation constant Kd in test [3] of 220 µM.
Molecule B4 gave a Kd in test [3] of 87 µM.
The same measure, in the same setting: the value for B5 was 111 µM; that for B6 was 106 µM.
Same read-out and setting: as for B7, the figure is 145 µM.
The molecule B8 showed a Kd in test [3] of 186 µM.
The same measure, in the same setting: as for B9, the figure is 35 µM.
Take B10: in test [3], the Kd is 48 µM.
Take B11: in test [4], the binding result is given as “binds”.
In turn, B12 had a Kd in test [5] of 195 µM.
Same read-out and setting: as for B13, the figure is 29 µM; as for B14, 103 µM.
B15 came in with a Kd in test [5] of 192 µM.
